Laboratory results published in patent US8357523B2, “Beta-glucosidase variant enzymes and related polynucleotides” (Codexis, Inc., priority 2009, dated 2013).
Changes are numbered by the printed parent chain.

Assay: High throughput cellobiose assay: fold improvement in cellobiase activity of CelA variants over a control enzyme (Tables 2A-2D, 3, 5, 6, 7)
Assay type: biochemical
Conditions: 3.3 g/l cellobiose, 55° C. and pH 6.0

B1: 103 (protein)
chain: STAIAQEGAAPAAILHPEKWPRPATQRLIDPAVEKRVDALLKQLSVEEKVGQVIQGDIGTITPEDLRKYPLGSILAGGNSGPNGDDRAPPKEWLDLADAFYRVSLEKRPGHTPIPVLFGIDAVHGHGNIGSATIFPHNIALGATRDPELLRRIGEVTAVEMAATGIDWTFAPALSVVRDDRWGRTYEGFSEDPEIVAAYSAAIVEGVQGKFGSKDFMAPGRIVASAKHFLADGGTDQGRDQGDARISEDELIRIHNAGYPPAIDAGVLTVMASFSSWQGIKHHGHKQLLTDVLKGQMGFNGFIVGDWNAHDQVPGCTKFNCPTSLIAGLDMYMAADSWKQLYENTLAQVKDGTIPMARLDDAVRRILRVKVLAGLFEKPAPKDRPGLPGLETLGSPEHRAVGREAVRKSLVLLKNDKGTLPLSPKARVLVAGDGADNIGKQSGGWTISWQGTGNRNDEFPGATSILGGIRDAVADAGGSVEFDVAGQYKTKPDVAIVVFGEEPYAEFQGDVETLEYQPDQKQDLALLKKLKDQGIPVVAVFLSGRPMWVNPELNASDAFVAAWLPGTEGGGVADVLFTDKAGKVQHDFAGKLSYSWPRTAAQTTVNRGDADYNPLFAYGYGLTYKDKSKVGTLPEESGVPAEARQN
In the case of B1, the “Fold improvement over Control Variant No. 5 from Table 2A” value is reported as “++ (++ = 1.1 to 6 fold improvement over control Variant No. 2)”.

B2: 107 (protein)
chain: STAIAQEGAAPAAILHPEKWPRPATQRLIDPAVEKRVDALLKQLSVEEKVGQVIQGDIGTITPEDLRKYPLGSILAGGNSGPNGDDRAPPKEWLDLADAFYRVSLEKRPGHTPIPVLFGIDAVHGHGNIGSATIFPHNIALGATRDPELLRRIGEVTAVEMAATGIDWTFAPALSVVRDDRWGRTYEGFSEDPEIVAAYSAAIVEGVQGKFGSKDFMAPGRIVASAKHFLADGGTDQGRDQGDARISEDELIRIHNAGYPPAIDAGVLTVMASFSSWQGIKHHGHKQLLTDVLKGQMGFNGFIVGDWNAHDQVPGCTKFNCPTSLIAGLDMYMAADSWKQLYENTLAQVKDGTIPMARLDDAVRRILRVKVLAGLFEKPAPKDRPGLPGLETLGSPEHRAVGREAVRKSLVLLKNDKGTLPLSPKARVLVAGDGADNIGKQSGGWTISWQGTGNRNDEFPGATSILGGIRDAVADAGGSVEFDVAGQYKTKPDVAIVVFGEEPYAEFQGDVETLEYQPDQKQDLALLKKLKDQGIPVVAVFLSGRPMWVNPELNASDAFVAAWLPGTEGGGVADVLFTDKAGKVQHDFAGKLSYSWPRTAAQTTVNRGDADYNPLFAYGYGLTYKDKSKVGTLPEESGVPAEAR
For B2, the “Fold improvement over Control Variant No. 5 from Table 2A” value was “++ (++ = 1.1 to 6 fold improvement over control Variant No. 2)”.

B3: 106 (protein)
chain: STAIAQEGAAPAAILHPEKWPRPATQRLIDPAVEKRVDALLKQLSVEEKVGQVIQGDIGTITPEDLRKYPLGSILAGGNSGPNGDDRAPPKEWLDLADAFYRVSLEKRPGHTPIPVLFGIDAVHGHGNIGSATIFPHNIALGATRDPELLRRIGEVTAVEMAATGIDWTFAPALSVVRDDRWGRTYEGFSEDPEIVAAYSAAIVEGVQGKFGSKDFMAPGRIVASAKHFLADGGTDQGRDQGDARISEDELIRIHNAGYPPAIDAGVLTVMASFSSWQGIKHHGHKQLLTDVLKGQMGFNGFIVGDWNAHDQVPGCTKFNCPTSLIAGLDMYMAADSWKQLYENTLAQVKDGTIPMARLDDAVRRILRVKVLAGLFEKPAPKDRPGLPGLETLGSPEHRAVGREAVRKSLVLLKNDKGTLPLSPKARVLVAGDGADNIGKQSGGWTISWQGTGNRNDEFPGATSILGGIRDAVADAGGSVEFDVAGQYKTKPDVAIVVFGEEPYAEFQGDVETLEYQPDQKQDLALLKKLKDQGIPVVAVFLSGRPMWVNPELNASDAFVAAWLPGTEGGGVADVLFTDKAGKVQHDFAGKLSYSWPRTAAQTTVNRGDADYNPLFAYGYGLTYKDKSKVGTLPEE
With B3 the “Fold improvement over Control Variant No. 5 from Table 2A” value was “++ (++ = 1.1 to 6 fold improvement over control Variant No. 2)”.

B4: 99 (protein)
chain: STAIAQEGAAPAAILHPEKWPRPATQRLIDPAVEKRVDALLKQLSVEEKVGQVIQGDIGTITPEDLRKYPLGSILAGGNSGPNGDDRAPPKEWLDLADAFYRVSLEKRPGHTPIPVLFGIDAVHGHGKIGSATIFPHNIALGATRDPELLRRIGEVTAVEMAATGIDWTFAPALSVVRDDRWGRTYEGFSEDPEIVAAYSAAIVEGVQGKFGSKDFMAPGRSVACAKHFLADGGTDQGRDQGDARISEDELIRIHNAGYPPAIDAGVLTVMASFSSWQGIKHHGHKQLLTDVLKGQMGFNGFIVGDWNAHDQVPGCTKFNCPTSLIAGLDMYMAADSWKQLYENTLAQVKDGTIPMARLDDAVRRILRVKVLAGLFEKPAPKDRPGLPGLETLGSPEHRAVGREAVRKSLVLLKNDKGTLPLSPKARVLVAGDGADNIGKQSGGWTISWQGTGNRNDEFPGATSILGGIRDAVADAGGSVEFDVAGQYKTKPDVAIVVFGEEPYAEFQGDVETLEYQPDQKQDLALLKKLKDQGIPVVAVFLSGRPMWVNPELNASDAFVAAWLPGTEGGGVADVLFTDKAGKVQHDFAGKLSYSWPRTAAQTTVNRGDADYNPLFAYGYGLTYKDKSKVGTLPEESGVPAEARQNAGIYFRAGALRLPGRFL
With B4 the “Fold improvement over Control Variant No. 5 from Table 2A” value was “+++ (+++ = 6 to 13 fold improvement over control Variant No. 2)”.

B5: 101 (protein)
chain: B4 chain with K128N, A162T, S222A
For B5, the “Fold improvement over Control Variant No. 5 from Table 2A” value was “+++ (+++ = 6 to 13 fold improvement over control Variant No. 2)”.

B6: 102 (protein)
chain: B4 chain with K128N, A162T, S222I, A573S
With B6 the “Fold improvement over Control Variant No. 5 from Table 2A” value was “++ (++ = 1.1 to 6 fold improvement over control Variant No. 2)”.

B7: 109 (protein)
chain: STAIAQEGAAPAAILHPEKWPRPATQRLIDPAVEKRVDALLKQLSVEEKVGQVIQGDIGTITPEDLRKYPLGSILAGGNSGPNGDDRAPPKEWLDLADAFYRVSLEKRPGHTPIPVLFGIDAVHGHGNIGSATIFPHNIALGATRDPELLRRIGEVTAVEMAATGIDWTFAPALSVVRDDRWGRTYEGFSEDPEIVAAYSAAIVEGVQGKFGSKDFMAPGRIVASAKHFLADGGTDQGRDQGDARISEDELIRIHNAGYPPAIDAGVLTVMASFSSWQGIKHHGHKQLLTDVLKGQMGFNGFIVGDWNAHDQVPGCTKFNCPTSLIAGLDMYMAADSWKQLYENTLAQVKDGTIPMARLDDAVRRILRVKVLAGLFEKPAPKDRPGLPGLETLGSPEHRAVGREAVRKSLVLLKNDKGTLPLSPKARVLVAGDGADNIGKQSGGWTISWQGTGNRNDEFPGATSILGGIRDAVADAGGSVEFDVAGQYKTKPDVAIVVFGEEPYAEFQGDVETLEYQPDQKQDLALLKKLKDQGIPVVAVFLSGRPMWVNPELNASDAFVAAWLPGTEGGGVADVLFTDKAGKVQHDFAGKLSYSWPRTAAQTTVNRGDADYNPLFAYGYGLTYKDKSKVGTLPEESGVPAEARQNAGIYFRAGALRLPGRF
In the case of B7, the “Fold improvement over Control Variant No. 5 from Table 2A” value is reported as “++ (++ = 1.1 to 6 fold improvement over control Variant No. 2)”.

B8: 108 (protein)
chain: STAIAQEGAAPAAILHPEKWPRPATQRLIDPAVEKRVDALLKQLSVEEKVGQVIQGDIGTITPEDLRKYPLGSILAGGNSGPNGDDRAPPKEWLDLADAFYRVSLEKRPGHTPIPVLFGIDAVHGHGNIGSATIFPHNIALGATRDPELLRRIGEVTAVEMAATGIDWTFAPALSVVRDDRWGRTYEGFSEDPEIVAAYSAAIVEGVQGKFGSKDFMAPGRIVASAKHFLADGGTDQGRDQGDARISEDELIRIHNAGYPPAIDAGVLTVMASFSSWQGIKHHGHKQLLTDVLKGQMGFNGFIVGDWNAHDQVPGCTKFNCPTSLIAGLDMYMAADSWKQLYENTLAQVKDGTIPMARLDDAVRRILRVKVLAGLFEKPAPKDRPGLPGLETLGSPEHRAVGREAVRKSLVLLKNDKGTLPLSPKARVLVAGDGADNIGKQSGGWTISWQGTGNRNDEFPGATSILGGIRDAVADAGGSVEFDVAGQYKTKPDVAIVVFGEEPYAEFQGDVETLEYQPDQKQDLALLKKLKDQGIPVVAVFLSGRPMWVNPELNASDAFVAAWLPGTEGGGVADVLFTDKAGKVQHDFAGKLSYSWPRTAAQTTVNRGDADYNPLFAYGYGLTYKDKSKVGTLPEESGVP
In the case of B8, the “Fold improvement over Control Variant No. 5 from Table 2A” value is reported as “++ (++ = 1.1 to 6 fold improvement over control Variant No. 2)”.

B9: 105 (protein)
chain: STAIAQEGAAPAAILHPEKWPRPATQRLIDPAVEKRVDALLKQLSVEEKVGQVIQGDIGTITPEDLRKYPLGSILAGGNSGPNGDDRAPPKEWLDLADAFYRVSLEKRPGHTPIPVLFGIDAVHGHGNIGSATIFPHNIALGATRDPELLRRIGEVTAVEMAATGIDWTFAPALSVVRDDRWGRTYEGFSEDPEIVAAYSAAIVEGVQGKFGSKDFMAPGRIVASAKHFLADGGTDQGRDQGDARISEDELIRIHNAGYPPAIDAGVLTVMASFSSWQGIKHHGHKQLLTDVLKGQMGFNGFIVGDWNAHDQVPGCTKFNCPTSLIAGLDMYMAADSWKQLYENTLAQVKDGTIPMARLDDAVRRILRVKVLAGLFEKPAPKDRPGLPGLETLGSPEHRAVGREAVRKSLVLLKNDKGTLPLSPKARVLVAGDGADNIGKQSGGWTISWQGTGNRNDEFPGATSILGGIRDAVADAGGSVEFDVAGQYKTKPDVAIVVFGEEPYAEFQGDVETLEYQPDQKQDLALLKKLKDQGIPVVAVFLSGRPMWVNPELNASDAFVAAWLPGTEGGGVADVLFTDKAGKVQHDFAGKLSYSWPRTAAQTTVNRGDADYNPLFAYGYGLTYKDKSKVGTLP
With B9 the “Fold improvement over Control Variant No. 5 from Table 2A” value was “++ (++ = 1.1 to 6 fold improvement over control Variant No. 2)”.

B10: 104 (protein)
chain: STAIAQEGAAPAAILHPEKWPRPATQRLIDPAVEKRVDALLKQLSVEEKVGQVIQGDIGTITPEDLRKYPLGSILAGGNSGPNGDDRAPPKEWLDLADAFYRVSLEKRPGHTPIPVLFGIDAVHGHGNIGSATIFPHNIALGATRDPELLRRIGEVTAVEMAATGIDWTFAPALSVVRDDRWGRTYEGFSEDPEIVAAYSAAIVEGVQGKFGSKDFMAPGRIVASAKHFLADGGTDQGRDQGDARISEDELIRIHNAGYPPAIDAGVLTVMASFSSWQGIKHHGHKQLLTDVLKGQMGFNGFIVGDWNAHDQVPGCTKFNCPTSLIAGLDMYMAADSWKQLYENTLAQVKDGTIPMARLDDAVRRILRVKVLAGLFEKPAPKDRPGLPGLETLGSPEHRAVGREAVRKSLVLLKNDKGTLPLSPKARVLVAGDGADNIGKQSGGWTISWQGTGNRNDEFPGATSILGGIRDAVADAGGSVEFDVAGQYKTKPDVAIVVFGEEPYAEFQGDVETLEYQPDQKQDLALLKKLKDQGIPVVAVFLSGRPMWVNPELNASDAFVAAWLPGTEGGGVADVLFTDKAGKVQHDFAGKLSYSWPRTAAQTTVNRGDADYNPLFAYGYGLTYKDKSKVGTLPEESGVPAEARQNAGIY
With B10 the “Fold improvement over Control Variant No. 5 from Table 2A” value was “++ (++ = 1.1 to 6 fold improvement over control Variant No. 2)”.
